Experimental data: US5504197

Molecular target: PDGF-A (PDGF dimer composed of two A chains)

## Platelet Derived Growth Factor-Associated Protein (PAP), rat, recombinant, expressed in bacteria
  3T3 cell mitogenicity assay (tritiated thymidine incorporation) in the presence and absence of PDGF: > 2 fold
